Our source for the Kd values is PMC10251311.

Holding throughout (experiment): MST
Series [1] concerns the target RSV postfusion F (Respiratory syncytial virus) (UniProt P03420+P03420). As to conditions: T in primer region unmodified, MST: PBS, 0.05% Tween 20, 25 C, 10-20 nM Cy5-aptamer, AlphaScreen: PBS with mucin 10 mg/L, BSA 1 mg/ml, salmon sperm DNA 1 mg/L, RT, 10 nM biotin-aptamer …. In general terms: Alpha assays give light when donor and acceptor beads are brought close together.

For series [2], the system named is Influenza H1 hemagglutinin S106 DS26r (Influenza virus H1). As to conditions: every U is TAdU (5-[(3-indolyl)propionamide-N-allyl]-2'-deoxyuridine); all sugars deoxyribose; T in primer region unmodified; MST: PBS, 0.05% Tween 20, 25 C, 10-20 nM Cy5-aptamer; AlphaScreen: PBS with mucin 10 mg/L, BSA 1 mg/ml, salmon sperm DNA 1 mg/L, RT, 10 nM biotin-aptamer ….
Series [3] concerns the target hMPV prefusion F v3B (Human metapneumovirus) (UniProt Q6WB98). As to conditions: every U is TAdU (5-[(3-indolyl)propionamide-N-allyl]-2'-deoxyuridine); all sugars deoxyribose; T in primer region unmodified; MST: PBS, 0.05% Tween 20, 25 C, 10-20 nM Cy5-aptamer; AlphaScreen: PBS with mucin 10 mg/L, BSA 1 mg/ml, salmon sperm DNA 1 mg/L, RT, 10 nM biotin-aptamer ….

Sequence of hMPV prefusion F v3B (Human metapneumovirus) (Q6WB98 whole entry, the tested form may be a part): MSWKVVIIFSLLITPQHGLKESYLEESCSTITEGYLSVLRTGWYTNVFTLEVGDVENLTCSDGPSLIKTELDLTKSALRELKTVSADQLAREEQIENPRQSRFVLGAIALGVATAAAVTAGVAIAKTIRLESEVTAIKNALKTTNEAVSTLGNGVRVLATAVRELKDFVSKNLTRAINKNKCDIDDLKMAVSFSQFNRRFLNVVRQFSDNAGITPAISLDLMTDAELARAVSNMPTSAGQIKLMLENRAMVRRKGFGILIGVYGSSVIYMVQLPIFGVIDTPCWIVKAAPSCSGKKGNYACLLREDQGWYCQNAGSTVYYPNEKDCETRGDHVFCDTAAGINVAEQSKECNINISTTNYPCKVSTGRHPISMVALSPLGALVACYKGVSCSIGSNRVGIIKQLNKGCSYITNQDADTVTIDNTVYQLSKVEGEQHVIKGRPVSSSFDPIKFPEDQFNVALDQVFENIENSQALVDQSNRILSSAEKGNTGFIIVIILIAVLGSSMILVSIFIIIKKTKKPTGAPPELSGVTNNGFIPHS

The Kd is the concentration at which binding is half-saturated. A lower Kd goes with a tighter complex. As for “GATCGAGCCAGCTACGTCAUGGUUGGGAGGUGUUGUGGGGAUGGUGGGUGGGAGUAUGACAUGCCUCAGCGACUA [D4]”, in series [1] (every U is TAdU (deoxy)), the Kd worked out at 2.76 µM.
The same measure, in the same setting: the same measure for “GATCGAGCCAGCTACGTCAGUUAUGGUAUAGGUUGGUGGUGGGGGGGGGUUGUGGUGGGACAUGCCUCAGCGACUA [B1]”: 3.99 µM.
As for “GATCGAGCCAGCTACGTCAUGCUGUCAAUGGGUGGGUGUGGUGGGGUUGAUGUUAUGUGACAUGCCUCAGCGACUA [A2]”, the Kd in series [1] (every U is TAdU (5-[(3-indolyl)propionamide-N-allyl]-2'-deoxyuridine), all sugars deoxyribose) stood at 0.994 µM; in series [2], 14.7 µM; in series [3], 6.95 µM.
